Results on 1 molecule are retold here after patent US20260234276A1.

The assay concerns the target human CCR8 (human) (UniProt P51685). Kind of assay: flow cytometry, hCCR8 transfected CHOK1 cells. A general note: A flow cytometer gives signals particle by particle.

B1: 3-27 (antibody, V domains shown)
VH: EVKLVESGGGLVKSGGSLKLSCAASGFTFSSYAMSWVRQTPEKRLEWVASINSGGSIYYPDSVKGRFTISRDNARNILYLQMSSLRSEDTAMYYCARGFGAYWGQGTLVTVSA
VL: DIQMTQSPSSLSASLGERVTLTCRASQDIGSSLHWLQQEPDGTIKRLIYATSSLDSGVPKRFSGSRSGSDYSLTISSLESEDFVDYYCLQYATSPTFGGGTKLEIK
The molecule B1 had a % positive cells of 42.5% and an MFI fold change to isotype ctrl of 2.76 fold.
